Data reported in patent publication US6391584B1, “Expression-cloning method for identifying target proteins for eukaryotic tyrosine kinases and novel target proteins” (New York University Medical Center, priority 1991, dated 2002).

Target: T1, EGFR (Homo sapiens, UniProt P00533)
T1 construct: Full length EGFR was immunoprecipitated with Mab108, and allowed to autophosphorylate; expressed in transfected cells; host or cells: NIH-3T3 cells transfected with wild-type EGFR (HER14)
Test: Binding of PLC-γ to immunoprecipitated, autophosphorylated full length EGFR; fraction remaining bound after washes
Conditions: Mean+/−SEM, n=4; anti PLC-γ blot with (125I)Protein A, bands quantitated in a γ counter
Protocol: FIG. 11 is a gel pattern showing that phosphorylation of PLC-γ reduces its binding to the EGF receptor. Full length EGFR was immunoprecipitated with Mab108, and allowed to autophosphorylate. Lysate from PLC-γ overexpressing 3T-P1 cells was added and mixed for 90 min at 4° C. After binding, ATP was added to one half of the samples allowing the PLC-γ molecules to be phosphorylated by the EGF receptor. SDS-PAGE sample buffer-was then added to one half of the EGFR-PLC-γ complexes (NO WASH, left panel) and directly loaded onto the 6% gel. The other half was washed three times with HNTG and then loaded on the gel (WASH, right panel. After running duplicate samples on SDS-PAGE, the proteins were transferred to nitrocellulose and probed with anti PLC-γ and (^125I)Protein A. The bands were subsequently cut from the nitrocellulose and quantitated in a γ counter. After three washes with HNTG, 50+/−5% (Mean+/−SEM, n=4) of the non-phosphorylated PLC-γ remained bound to the EGFR while only 22+/−4% of the phosphorylated PLC-γ remained (exposure time: 12 h).
The techniques used are described in several references from the present inventors, laboratory (Margolis, B. L. et al., J. Biol. Chem. 264: 10667-10671 (1989); Cell 57:1101-1107 (1989)). […]

PLC-γ remaining bound to the EGFR after three washes with HNTG: 22+/−4%
B1: phosphorylated PLC-γ: PLC-γ from 3T-P1 cell lysate phosphorylated by the EGF receptor after addition of ATP (protein, UniProt Q62077 2-1302, looked up)
1-phosphatidylinositol …: AGVATPCANGCGPGAPSEAEVLHLCRSLEVGTVMTLFYSKKSQRPERKTFQVKLETRQITWSRGADKIEGSIDIREIKEIRPGKTSRDFDRYQEDPAFRPDQSHCFVILYGMEFRLKTLSLQATSEDEVNMWIKGLTWLMEDTLQAATPLQIERWLRKQFYSVDRNREDRISAKDLKNMLSQVNYRVPNMRFLRERLTDLEQRSGDITYGQFAQLYRSLMYSAQKTMDLPFLETNALRTGERPEHCQVSLSEFQQFLLEYQGELWAVDRLQVQEFMLSFLRDPLREIEEPYFFLDELVTFLFSKENSVWNSQLDAVCPDTMNNPLSHYWISSSHNTYLTGDQFSSESSLEAYARCLRMGCRCIELDCWDGPDGMPVIYHGHTLTTKIKFSDVLHTIKEHAFVASEYPVILSIEDHCSIAQQRNMAQHFRKVLGDTLLTKPVDIAADGLPSPNQLRRKILIKHKKLAEGSAYEEVPTSVMYSENDISNSIKNGILYLEDPVNHEWYPHYFVLTSSKIYYSEETSSDQGNEDEEEPKEASSSTELHSSEKWFHGKLGAGRDGRHIAERLLTEYCIETGAPDGSFLVRESETFVGDYTLSFWRNGKVQHCRIHSRQDAGTPKFFLTDNLVFDSLYDLITHYQQVPLRCNEFEMRLSEPVPQTNAHESKEWYHASLTRAQAEHMLMRVPRDGAFLVRKRNEPNSYAISFRAEGKIKHCRVQQEGQTVMLGNSEFDSLVDLISYYEKHPLYRKMKLRYPINEEALEKIGTAEPDYGALYEGRNPGFYVEANPMPTFKCAVKALFDYKAQREDELTFTKSAIIQNVEKQDGGWWRGDYGGKKQLWFPSNYVEEMINPAVLEPEREHLDENSPLGDLLRGVLDVPACQIAIRPEGKNNRLFVFSISMPSVAQWSLDVAADSQEELQDWVKKIREVAQTADARLTEGKMMERRKKIALELSELVVYCRPVPFDEEKIGTERACYRDMSSFPETKAEKYVNKAKGKKFLQYNRLQLSRIYPKGQRLDSSNYDPLPMWICGSQLVALNFQTPDKPMQMNQALFMAGGHCGYVLQPSTMRDEAFDPFDKSSLRGLEPCVICIEVLGARHLPKNGRGIVCPFVEIEVAGAEYDSTKQKTEFVVDNGLNPVWPAKPFHFQISNPEFAFLRFVVYEEDMFSDQNFLAQATFPVKGLKTGYRAVPLKNNYSEDLELASLLIKIDIFPAKENGDLSPFSGISLRERASDASSQLFHVRAREGSFEARYQQPFEDFRISQEHLADHFDSRERSTSDGPSSATNLIEDPLHDKLWKCSL
modifications: tyrosine phosphorylated by EGF receptor
notes: PLC-γ from 3T-P1 cell lysate phosphorylated by the EGF receptor after addition of ATP
